System: MS2 coat protein
Assay: apparent KD of MS2 coat protein; designed switch direction (-1 OFF switch, 1 ON switch): 1; higher = weaker reporter binding
Procedure, shortened: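 On Illumina chips, designed RNA switches with common flanks were made by stalled E. coli RNA polymerase. Titrations with SNAP-549-labelled MS2 coat protein, doubling from 0.7 or 1.5 nM to 3 µM, were done with no input, with 200 uM small-molecule ligand, or with an oligonucleotide input. Apparent KD is the median per design over clusters, from curve fits of normalised cluster fluorescence.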

[1] = Eterna round: R95, input ligand: FMN 200 uM
[2] = Eterna round: R95, input ligand: microRNA oligo, concentration not stated
[3] = Eterna round: R95, input ligand: none
[4] = input ligand: microRNA oligo, concentration not stated

Sequence	apparent KD of MS2 coat protein [1]	apparent KD of MS2 coat protein [2]	apparent KD of MS2 coat protein [3]	apparent KD of MS2 coat protein (input ligand: FMN 200 uM)	apparent KD of MS2 coat protein [4]	apparent KD of MS2 coat protein (input ligand: none)
ACGCAGCUGGGUAAGGAUAUCGGUGGUAAAACAUGAGGAUCACCCAUGUCCGAAGCUCGGACUUCCGAGAAGGUGCCCGGCUGCG [Soinraesar Omei Mod 6] (puzzle: Same State 2)	23.8 nM	222 nM	218 nM	–	–	–
GUAGCAUACCGAGGAUAUUCAUAUAAUAAAUAACAUGAGGAUCACCCAUGUUGGCGAAAGCCUUGGGAGAAGGCGGAAUGCUAC [Xeonanis - 20 Mod56] (Eterna round: R96, puzzle: Same State NG 2)	–	–	–	13.5 nM	45.8 nM	55.5 nM
AUUAUACAUGAGGAUCACCCAUGUAAUUAAUUAAUUAAGAUCAAGGAUAUCAGCUCGUUUAGAGCUGAGAAGGUGAUCACAUGU [SSNG3/20-B3] (Eterna round: R96, puzzle: Same State NG 3)	–	–	–	–	147 nM	–
GGGCCAGCUUGUGCUGGGCCUUCGCUUGCACAUGAGGAUCACCCAUGUCGUGUACAUGCUUGGUGCCCGUCUUUCCC [Photon Torp-15] (puzzle: Sensor for hsa-mir-208a)	182 nM	49.2 nM	201 nM	–	–	–
GUACAUAUCAGAGGAUAUCACGUCGAAUAGACGUGAGAAGGCUGAUCACACAUGAAUAUUAAUACAUGAGGAUCACCCAUGUAC [SSNG1/13-A1] (Eterna round: R96, puzzle: Same State NG 1)	–	–	–	16.9 nM	24.5 nM	31.2 nM
GGAGCCGGCACUGAGGAUAUUCAUAAUAAAACAUGAGGAUCACCCAUGUAGGCCAGAAGGCCUUGGGAGAAGGCAGGUCGGCUCG [Mat - Same State 2 - Mod of UCT - D65] (puzzle: Same State 2)	16.7 nM	138 nM	185 nM	–	–	–
CUGAAAUGUCAAGGAUAUCACGUCGAUUAGACGUGAGAAGGUGAUCUACACAUGAGGAUCACCCAUGUGUUACGUGGGAGUCAG [Brourd's SSNG1/1-A2 mod 18] (Eterna round: R96, puzzle: Same State NG 1)	–	–	–	82.1 nM	104 nM	171 nM
ACAUGAGACUUAGGAUAUGUUGUACCUACAUGUGACAUGAGGAUCACCCAUGUGGUAAGUAUGAUACAGAAGGAAGAGAUAUGU [Equivalance 66 - Jieux - Same State NG 2] (Eterna round: R96, puzzle: Same State NG 2)	–	–	–	17.2 nM	27.5 nM	42.9 nM
CCGUAGAUGGUAGGAUAUGGAGCCUUAUUGGCUCCAGAAGGAUCGAAACAUGAGGAUCACCCAUGUUCGGCGGUCAAUAGACCG [Eli NG1ss - 85] (Eterna round: R96, puzzle: Same State NG 1)	–	–	–	22.5 nM	17.6 nM	23.9 nM
GGAGCCGGCCUAGGAUAUUUCAUAAAAAAACAUGAGGAUCACCCAUGUAGGCCAGAAGGCCUUGGGAAGAAGGAGGUCGGCUCC [Loop Effect - Control] (Eterna round: R96, puzzle: Same State NG 2)	–	–	–	8.94 nM	11.9 nM	21.3 nM
GAGAGACAUGAGGAUCACCCAUGUAGAAUAGAACAAGGAUAUGUGGAAGGCGGAGGAGAGACAGAAGGUGUAGGAG [JR_SS1_Sub055] (puzzle: Same State 1)	–	64 nM	–	–	–	–
AUACUGUACCGAGGAUAUCCAUUUUUCUAACAUGAGGAUCACCCAUGUGAAGGGAUUGAGUUGUAGGAGAAGGCGGUAUAGUAU [JR_SSNG2_Sub062] (Eterna round: R96, puzzle: Same State NG 2)	–	–	–	14.8 nM	11.6 nM	21.5 nM
GUGGUCAGACAUGAGGAUCACCCAUGUGGAAUAAAUAAGGAAAAGGAUAUUCAAUAUAGGAUAUAGAAGAAGGUUUGGUUGGUG (Eterna round: R96, puzzle: Same State NG 3)	–	–	–	–	73.5 nM	–
GAGUUACAUGAGGAUCACCCAUGUUGUUUUGGAUAAGGAUAUAUGGUAGGAAGAGGAAUGAUAGAAGGUAUUAGGG [JR_SS1_Sub063] (Eterna round: R96, puzzle: Same State 1)	–	–	–	41.6 nM	26.8 nM	35.3 nM
GGAAAGAGGUUAGGAUAUGCAUGGCUGGGACAUGAGGAUCACCCAUGUAAUAGAAGAAAUCUAGGGUAGAAGGGACAAGGAAGG [ssng2 v2 a] (Eterna round: R96, puzzle: Same State NG 2)	–	–	–	507 nM	278 nM	644 nM
AAAGAAAACGCAGGAUAUACCCGGGAAACCGAGGUAGAAGGGUGAACCAAAACAAAACUAAAUAACAUGAGGAUCACCCAUGUC [Biarzara] (Eterna round: R96, puzzle: Same State NG 1)	–	–	–	162 nM	12.7 nM	132 nM

Sequence	apparent KD of MS2 coat protein [1]	apparent KD of MS2 coat protein [2]	apparent KD of MS2 coat protein [3]	apparent KD of MS2 coat protein (input ligand: FMN 200 uM)	apparent KD of MS2 coat protein [4]	apparent KD of MS2 coat protein (input ligand: none)
ACAUGAAAUAGAGGAUAUUUUGUACCUACAUGUGACAUGAGGAUCACCCAUGUGGUAAGUAUGAGAAAGAAGGCUAAGAUAUGU [Equivalence 12 - Jieux - Same State NG 2] (Eterna round: R96, puzzle: Same State NG 2)	–	–	–	18.6 nM	30.3 nM	48.6 nM
AAGAAAGUUUACGAGGAUAUGUUCCGCAUAACAUGAGGAUCACCCAUGUGAACAAGAAAGGCGACGCAGAAGGCGUGAGCAAAAG [Mat - Same State 2 - Mod of UCT - D97] (puzzle: Same State 2)	105 nM	199 nM	412 nM	–	–	–
GACAAGCAGGCUUUUUUCUCGUAGUGUAAACAUGAGGAUCACCCAUGUGCCCGCCCUGGAUCUUUGGAUCGCAGGAA [Onlari] (puzzle: Sensor for hsa-mir-208a)	36.4 nM	14.5 nM	35.5 nM	–	–	–
GAGUGGAGGUAAGGAUAUAUAAUGAUAAUCACAGUAGAAGGUACUAACAUGAGGAUCACCCAUGUAGGACUAUACCAGAGAGGG [Parity 45 - Jieux - Same State NG 1] (Eterna round: R96, puzzle: Same State NG 1)	–	–	–	–	11.9 nM	–
UGGAUCUAGGCUUGCCUGGGUCCAUGCUGACAUGAGGAUCACCCAUGUGCAUUCUAUAAGCUUUUUGUUUGUCAGCU (puzzle: Sensor for hsa-mir-208a)	360 nM	25.1 nM	411 nM	–	–	–
AUUAUUAAUGCAGGAUAUGAAUAACAUGAGGAUCACCCAUGUGGUGUUGUGAGUAAGGAGAGAGAUCAGAAGGGCAUUUUUUUU [JMF's solution 4] (Eterna round: R96, puzzle: Same State NG 2)	–	–	–	349 nM	225 nM	258 nM
UAAAGAUCGCGAGGAUAUCGCGAGGAUCACCCGUGAGAAGGCGCAGAGCCGAGGAUCACCCGGCUGAUCCUGAGGAGGAGGUCA (Eterna round: R96, puzzle: Same State NG 1)	–	–	–	204 nM	213 nM	302 nM
GGCAGGUGCAGGCUUGCUUGCACCUGGAAACAUGAGGAUCACCCAUGUUUGGGACAAGCUUUGCUCCUCGUUUUGUC [JL ViennaUCT Isusreraar mod 3] (puzzle: Sensor for hsa-mir-208a)	209 nM	133 nM	288 nM	–	–	–
GGUAGGUUACUACCAACACAUGAGGAUCACCCAUGUUAUGGGAAGGAUAUGGUACCUAUUUGGUACCAGAAGGUCCAGUUAAUU [Fiskers NG3ss - 16] (Eterna round: R96, puzzle: Same State NG 3)	–	–	–	77.6 nM	206 nM	449 nM
AUCCUACAUGAGGAUCACCCAUGUGACGCCUCGAUAGGAUAUGCGUGUGCCUUGGCGCAUGCAGAAGGAUUGUUGC [JL Aveso mod 7] (Eterna round: R96, puzzle: Same State 1)	–	–	–	–	20.3 nM	–
GGUGUACAUGAGGAUCACCCAUGUCGACCGCUCACAGGAUAUUUAAUACAAACUGGUAGCGGAGAAGGGUGAGGAA [Oresbeve] (puzzle: Same State 1)	164 nM	95.7 nM	247 nM	–	–	–
GUGGGACAUGAGGAUCACCCAUGUGGGAGGGAACGAGGAUAUGUGAGGAGCGAGAAGUGAACAGAAGGCGUGGUUG [JR_SS1_Sub023] (puzzle: Same State 1)	–	75.3 nM	–	–	–	–
AGCCGAGACUGAGGAUAUAGAAAUCUACAUGAGGAUCACCCAUGUAACAACACGUGGUAGUGAUUCUAGAAGGCGGCUCGGCGC [Omei SS(NG)2 Cv4] (Eterna round: R96, puzzle: Same State NG 2)	–	–	–	113 nM	279 nM	1150 nM
UAACAGUACAAUUUAGAUCUACAUGAGGAUCACCCAUGUACUGAGGAUAUCAGCUCGUGUAGAGCUGAGAAGGCAGAAGAACUA [SSNG3/11-A4] (Eterna round: R96, puzzle: Same State NG 3)	–	–	–	38.1 nM	93.4 nM	173 nM
CAUCUAUACGUAGGAUAUGUAGGAUAUGCCUACAUGAGGAUCACCCAUGUUCGCAUGGCAGAAGGACAGAAGGACGAACUACUU [pwkr ssNG2 2FMN + 1F5.6] (Eterna round: R96, puzzle: Same State NG 2)	–	–	–	32.4 nM	174 nM	234 nM
UGUUUGUUGUGAGGAUAUACAUACACCUUACAUGAGGAUCACCCAUGUUGUAAUUUUGAUAGUUAGUAGAAGGCACUUGGUUAU [JR_SSNG2_Sub045] (Eterna round: R96, puzzle: Same State NG 2)	–	–	–	35.2 nM	64.3 nM	71.5 nM

From the supplement of paper PMC9170038
